Experimental findings from article doi:10.1101/2024.02.24.581848 are described below.

The test concerns the target HigC SecB^TA chaperone of the E. coli NT1F31 HigBAC system (E. coli NT1F31). Description: ITC.

GELTAESYDDSYLAAAAADWTATGQGQKSAG [gpV^48-78 peptide, poly-alanine substitution of the D61DED64 element] yielded a Kd of 7 µM and a stoichiometry N of 0.5.
Molecule GELTAESYDDSYLDDEDADWTATGQGQKSAG [gpV^48-78 peptide] returned a Kd of 0.25 µM, an effective KD with 1.5-fold molar excess of the HigA ChAD peptide of 6.6 µM and a stoichiometry N of 0.47.
